The series can be described thus: soluble on expression in E. coli; label from the status in PepcDB or PDB records.
On to “MAHHHHHHMGSKHPRGSTSAPAHEEEQQAHVDTEHHTEPPSFTAGPEVAEMQVTVTPTMPPTSMEQASMTVSGEGPSTLAVPKQQHLRHKSFTMTEVQQLISVNPDRTLVIIRDKVYDVTTFLASHPGGKSALRRNNGKDVTDAFFSMHSAMAVRKLPDFLIGELAPPESTSAAGEETPTAALVPARLRMADITKALSEDLNRIILILFSDAYDVTSMRDKHPGGLSVLVNNNGRECGDTFMRIHGLLAKEMVKQFYLGPVEGLAQGRSPLRPAVAAEVESTAITPAGPKAQSTRILEIESVNSTVTIRYFTFSCPKPLYMIPGGHIKLYSNLHEKESRFYTPFKTGVSSFTICMKHYPNGRTSGYLFDLKEGDEVFFDGPLPPSWQLNTDAAVQRAAPEERHVVLVGGGTGIAPLYSMSSNALETQFSSVTLVCSVRTPDDLILATELRQLANRYSTALPIQKHTLRIVLLFSRASPQDISVESTSFASHVLCGGRLTAESFKGTEIHPAQAVVVCGPPTFNDAVAAAVLEAGICTATQVHHL”, for which the “soluble on expression in E. coli” value is on record as “not soluble”.

As for “MAHHHHHHMGVDVGESAIGVDAVARPIGYGPFSAAAKARLAREKAHKAVETCDSAAAAASATVMKNVSLDTNLYLRLSLAGLPHPSQLQEWAYTSPEWRLAFVRLYRTILRLHNKAVAVSLRTARRQGSEAALSAATGMRATSQTTVAGAAVAATGADNSLAEDKDDYFLRYLLTPDQQEFGNRFVQEEFARHTDADAVAASIFYASWYEYVLQLASGVTAREMTEKEKRILTDEQKETLNSLRSAFLDLRSSQRPKYMP”, the “soluble on expression in E. coli” value is on record as “not soluble”.

Take “MAHHHHHHMGVKFIVEHMDDLEEWCILEYMHICEIVKDENIIFTKFKGNFKDISKSHEPKCYEKSIGDLKDEFGWNKICLLDMKAKDVLTCKDKNEIDFLLFGGILGNVPSNDRTSELRKFEFPISRNLGSVQMTTNTAVLVCHIILNDQVELENIPFVDNPDIVLKNNKESMMLPFRFVSKYYYTKCESDKNVPILPKNFKDYLIKLGDQQYNDLDSFF”: the “soluble on expression in E. coli” value was “soluble”.

As to “MAHHHHHHMHFSQYPLRLTDLERQKLQLIVAALKVSEYTDDVDDFMRPYGKEGRMEAAMREFIDIVVGLAIASDAIPRSVKNSFLAGEVKVATVVPLLEDLFEIMRRHKRLNPFSHRGEFGKLMMMLQDVQKRSLQRALEIQSTLVIPVRTVEAALSSIYCETLVDDEAVRTDYLKRTGAEKQAGMQSLIERYGKGDEHKKEVIEHCLRSIDDVYSFIQSNTRPLRTLRRWLSRDFEPLPSDDVYSISIRHGRSGACFTHSHATHCQYVTESLLLWENVQKNILNLWEAAEDDMLVEGQGQYVVANTGQGFHRMCSAPKSYGVMSRLVRDTEQRMGGWVGIKVIHLGDRDVPNPLVFIDKYTVIPRLVKPVVQTLHALRYVLHEEDEEEEGQPQVAHEYDNYPGLRNLLRSKYHSYSELMMMILSDFFKHAFDGSGDDGGSCIDGRLTSAWNWCHQLHKKKYYDAFVLTGFAGFD”, the “soluble on expression in E. coli” value is recorded as “not soluble”.

For “MAHHHHHHMHNSVPASNTCSPFREETVSKRGKRSRGTGGDDKITRGTCSQPFSVITLPPGKLLEWLVCSPCRVYDVNLPRSRNNDNNISSLQCAVLPNFFVEYGGRSYSCVAKVCKPQLRKVLLRALAAVRQEMGSVDDIPHDSLLVVAVSPINAFSSECIHDASRTAMPRAREGCKIVGLCVARELSAPHRMHCESNWSHEKSEASGVGAAVQEGLGDCWEEDATRVGGTNNVRKAFCGVQLVWVADCYRRHGVAKVLVDTARRHISYGFEVPVERVAFSEPTSLGKLFAKSYSGRPDFLI”, the “soluble on expression in E. coli” value is recorded as “soluble”.

On to “MAHHHHHHMHRFRVCALGAAFCVARRWRSGGGPGDRRVRTDWYRCYPSLMEEKDRDMYHCYYPYLFDHGDKMSLYPKIPDNPREWQVEQLQTTYDAIREDKYDAFVRLRAKFPELYQDTYAWDNPPPFGEFNMFYSVRFGMIGVKAFTCKDYDDLGNQFDCTAFWFPDNQIVKHSTRNGDVGTDKVYVGAMNVPVEFHKPHVAAFYKAAGVPVKHVSAGFPVTPDAYAPVGTKLDVRHFKPGQEVTITFQNTDYGYQGVMFRHGFDGGYVWLGDSKWQRRPGCMGAEGQKRIYPGHRMAGQTGASAETYDGVPVWRIDYKNSLIYLPTLIDADVGTYVKFRDTINTKGYTLWNEHRGTPPFPTFIPSEEEDLSKLATDEGQLTSPPLYMYFRDEFAAAQLVTQADVEDAKSAKPATAAPKKKVYDLKKYTEARKKYRKNLQKARKYKLMGVRTRAHEKQQEARRAKILKYKRVKT”, for which the “soluble on expression in E. coli” value is “not soluble”.

As to “MAHHHHHHMHRGPGKRQTAPKEAAQYQFIKKWDLQMRETWDELEPFKGLPKPKVQFGNEAAEVIWPYALLLENVIKVHPYTKSIYVYYSQRQSTPLGELAARVAKRVSQAYLIPITFHNSHVYVEAEMLLEYSETPWVVVHCLDGTHKLIPVKPQAGQTVKEGAEEVLNGIVSACNEIGSAVKNPKEVMRLLSERPLQNQYVRVNYQWYGDTPEERMSHLVKWDYEPEEVVPQLRNRTQHVLDWMNYDGNLPTHNSVRVNIHREAARMRKPNVSAGPKTFFNSSGSRANARTARFDNSRSSQS”, the “soluble on expression in E. coli” value is reported as “not soluble”.

As for “MAHHHHHHMHTYTTQPCATSTSVPQLTRLSVSSSGHSPAVPTNWSIGRPTTLRCRDTDSDVHCNWGAIQGEDEEDKESLIGCATQVWRISAEVQMPLQCSHGTRATEEETLLGAPTSHCGDHLTNGRGVFASSPPIVWQPAPLPASFSASQIDLSGGGQDNAVLLSGAPVGSAEEETHNDNREVTRSNVIPATGDIAATESNDSFVGLEAAPRKGYARSNSGTPPRSDLGSPNNAANLQAHGRAANGVSAGVELVYRAAASETNSHHFGASLCANIGSGCRARLGIPAEWRDHMCAATPQGRGVWVQVPGQLRESEYPASTTTAEAVAARLAHISIHTSPTPKRLAFEEEELVERVSGGGSPTLIPAVRFVADGAARRGACNEASVAQGAGGSTEVGLLGRGAGGLSSSGMRWASVFGDSGHLELCSSRIPSGLQLLRSRKRCLDEMQATDTQERHADTLVTGGISDARDASYLVPDRVARMSLATPFENLEEDGDGDEEAVKRQRREEQRRMRLQHLLPASPNTMDDLIPAPARALGTAVAPCSSVSSSHVRSTVHGIQSTQDQQHQQDRTRNDDPASWSQVSSISYVTPASQSTSMGLWGVPGTLSQGHHGGAVVCSVGSGSQLLTPLPTNVMPQPSHKP”, the “soluble on expression in E. coli” value is given as “not soluble”.

Regarding “MAHHHHHHMIAAIKTPAFQERVRAAMSREPTPADAEAVMKRYEEVQADYFTNHYNAEAGGICSSASAGAESRGTGGAGGRAKSSQDASEALAQQVDDMNLQEASDAPKLDGVEIVEQLKNAVRVYKEKETVRLITELCLLIESQVTALPATVPALRHLYSNSVYGSSAMEHAQAASAQAGGGESVLPVAQPSPQVMSMMGMAMRTLNPRQRETLERVQRAMMNGSPPLPEDMQDMLLIQRQLGAFMQTMQRFGQMPSGRGCGSGGRGGCGGQGGQ”, the “soluble on expression in E. coli” value was “soluble”.

Consider “MAHHHHHHMIDEKSKMYSKNDEFNVKKEMDMNLKCDNVNLDIWNTSFLNNETLNEDIFIHIGNKLLKMYYTTNHNIPSETLYSLLYEMKNGYNNVPYHNSIHAAMVTHHCNVLVSNLNTANILRDNELGALFVASLGHDIGHFGRTNIFLKNCCNFLSIIYNDKSILENYHCSYLFNILLKDENNIFKNEDPKCLLALRQQIIELILATDMSKHIKILAQFRIKSIKIKSYIEKNIILCLKMIIKAADLSHNCVDWSEHYQWVKRLVNEFYYEGDELFQMGYKINPLFDRNCHNNFIQIQRTFLKELVYPLIISLKTLDNTSITQDMINNVKRNYSKWTKIEKCQIKKKKYLNELLCNIPDNWARVYYPNLNIY”, for which the “soluble on expression in E. coli” value is listed as “not soluble”.

Consider “MAHHHHHHMIEDNIDENCQIYLNPKNWLKEFENTKINENDINEVLMNYFCVHRMYDVAKEFQKESNVKPDMPINTVKIRYLIQNEIMNNKIEEAIEHINNLDKGILKKHKDLVFFLKKQQLLKLILNNNINEAIIYSQQELASYVKEKPSLINEIDDVMMLMAYQDFNNEEAKNLIQKIEKKKNTLKRIDDIILNYYNVDSESTLEYMVKNVFFTQNVLSSKYPCSVPKIKNLKSGYIEYYEKYKKKKRKSSSKKYRSKDKDKVDKHDKKNVDNIVKDFDVTNDEEYRSV”, for which the “soluble on expression in E. coli” value is listed as “not soluble”.

On to “MAHHHHHHMIGSFRIIRLPRTASSLRSLNGGQRSPHDDVVCGRQPQGLEGGRKGESVDGGIRPSFTRVGQLTDTYRTRRAGWLCQRDDRWTERRPFQPAGIFLEGGEEAGRVDLRLTDMQRIYDVGPISAENERFAASTLLYATDEVRSLLVEKEWIKLYCLHGVAAADDECNIAFVDLTEKLEDVKRVLVAWKEKDA”, for which the “soluble on expression in E. coli” value is recorded as “not soluble”.

(Values after the DeepSol protein solubility set.)
